Source: patent US6593098 (FOX CHASE CANCER CENTER, dated 2003)

Legend:
human BUB1A kinase = biological target: T1, human BUB1A kinase (human, UniProt O60566 1-1050, hyperphosphorylated in mitotically arrested cells (P-ser and P-thr the major phosphoamino acids; positions not given)); experiment: specificity test, method not named in the sentence (probably yeast two-hybrid)
T1 construct: Endogenous huBUB1A immunoprecipitated or blotted from Hela lysates; also called huBUB1A; hUBUB1A

CENP-E = biological target: T2, CENP-E (human, UniProt Q02224 1-2698, limits assumed); experiment: as above
T2 construct: Endogenous Hela protein in the immunoprecipitations; also called CENP-E kinetochore motor; endogenous CENP-E
T2 sequence (Q02224 1-2698 limits assumed): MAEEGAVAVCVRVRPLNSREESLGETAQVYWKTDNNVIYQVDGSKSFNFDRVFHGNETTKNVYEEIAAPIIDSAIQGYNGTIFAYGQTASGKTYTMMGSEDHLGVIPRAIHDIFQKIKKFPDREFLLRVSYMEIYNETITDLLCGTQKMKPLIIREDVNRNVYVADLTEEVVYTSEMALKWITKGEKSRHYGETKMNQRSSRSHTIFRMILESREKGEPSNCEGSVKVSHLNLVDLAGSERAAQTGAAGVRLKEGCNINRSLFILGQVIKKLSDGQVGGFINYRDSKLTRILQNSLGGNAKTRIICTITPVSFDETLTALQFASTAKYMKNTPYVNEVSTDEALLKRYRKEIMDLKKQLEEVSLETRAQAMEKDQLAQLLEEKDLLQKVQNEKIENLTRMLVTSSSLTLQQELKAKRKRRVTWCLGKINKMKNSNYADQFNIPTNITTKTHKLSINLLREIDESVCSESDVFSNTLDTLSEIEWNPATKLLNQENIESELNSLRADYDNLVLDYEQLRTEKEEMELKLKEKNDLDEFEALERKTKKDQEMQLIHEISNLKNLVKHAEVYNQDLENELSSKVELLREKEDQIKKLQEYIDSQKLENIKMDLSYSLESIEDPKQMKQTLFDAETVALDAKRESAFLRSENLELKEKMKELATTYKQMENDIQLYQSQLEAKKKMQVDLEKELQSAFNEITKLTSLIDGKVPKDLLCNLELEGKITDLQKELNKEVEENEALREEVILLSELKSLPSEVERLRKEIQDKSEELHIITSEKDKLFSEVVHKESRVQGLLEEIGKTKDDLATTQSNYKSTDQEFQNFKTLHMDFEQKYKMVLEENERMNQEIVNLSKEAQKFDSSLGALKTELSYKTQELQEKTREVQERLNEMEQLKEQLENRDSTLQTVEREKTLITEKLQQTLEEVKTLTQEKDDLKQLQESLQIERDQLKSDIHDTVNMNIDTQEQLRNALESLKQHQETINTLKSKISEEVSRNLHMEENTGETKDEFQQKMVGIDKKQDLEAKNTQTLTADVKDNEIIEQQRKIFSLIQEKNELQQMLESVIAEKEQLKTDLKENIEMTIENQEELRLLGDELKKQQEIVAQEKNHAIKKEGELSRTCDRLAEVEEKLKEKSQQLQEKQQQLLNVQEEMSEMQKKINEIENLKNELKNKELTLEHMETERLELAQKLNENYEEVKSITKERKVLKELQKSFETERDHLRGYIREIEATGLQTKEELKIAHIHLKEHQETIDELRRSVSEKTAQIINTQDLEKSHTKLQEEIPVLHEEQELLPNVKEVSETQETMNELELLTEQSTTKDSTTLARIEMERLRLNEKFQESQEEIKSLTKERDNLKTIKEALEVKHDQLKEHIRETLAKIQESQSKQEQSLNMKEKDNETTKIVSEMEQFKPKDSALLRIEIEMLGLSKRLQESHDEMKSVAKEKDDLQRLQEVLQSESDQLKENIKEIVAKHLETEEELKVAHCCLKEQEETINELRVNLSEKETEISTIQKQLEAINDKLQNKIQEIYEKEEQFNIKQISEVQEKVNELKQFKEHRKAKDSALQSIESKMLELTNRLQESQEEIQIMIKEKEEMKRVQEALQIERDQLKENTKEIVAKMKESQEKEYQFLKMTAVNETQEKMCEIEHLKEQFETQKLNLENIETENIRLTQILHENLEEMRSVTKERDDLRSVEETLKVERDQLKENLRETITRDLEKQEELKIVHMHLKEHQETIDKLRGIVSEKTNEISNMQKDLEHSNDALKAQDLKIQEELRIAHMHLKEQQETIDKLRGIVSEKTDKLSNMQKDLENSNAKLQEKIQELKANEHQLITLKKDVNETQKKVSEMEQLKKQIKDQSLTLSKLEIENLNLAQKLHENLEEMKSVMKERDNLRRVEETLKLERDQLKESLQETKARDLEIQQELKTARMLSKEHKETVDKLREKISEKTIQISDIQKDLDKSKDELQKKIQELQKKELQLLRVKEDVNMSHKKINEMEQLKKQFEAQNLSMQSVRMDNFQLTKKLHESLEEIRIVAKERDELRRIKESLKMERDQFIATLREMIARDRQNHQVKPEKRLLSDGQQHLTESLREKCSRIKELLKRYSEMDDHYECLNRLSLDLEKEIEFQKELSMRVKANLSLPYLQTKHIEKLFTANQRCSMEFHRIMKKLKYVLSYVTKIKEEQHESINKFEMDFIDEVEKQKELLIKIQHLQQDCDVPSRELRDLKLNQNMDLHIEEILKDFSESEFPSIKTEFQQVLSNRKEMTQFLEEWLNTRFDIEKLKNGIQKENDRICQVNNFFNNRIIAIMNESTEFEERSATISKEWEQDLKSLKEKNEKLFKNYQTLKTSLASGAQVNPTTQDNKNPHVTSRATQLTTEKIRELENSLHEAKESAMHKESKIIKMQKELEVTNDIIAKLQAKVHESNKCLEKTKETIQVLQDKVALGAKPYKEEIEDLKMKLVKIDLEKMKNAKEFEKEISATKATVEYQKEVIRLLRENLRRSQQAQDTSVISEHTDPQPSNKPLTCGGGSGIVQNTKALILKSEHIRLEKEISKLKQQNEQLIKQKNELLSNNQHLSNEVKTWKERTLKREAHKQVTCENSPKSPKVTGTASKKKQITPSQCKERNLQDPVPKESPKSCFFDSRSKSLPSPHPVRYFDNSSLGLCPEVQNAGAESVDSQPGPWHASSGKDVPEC

T1 sequence (O60566 whole entry R349Q/E1018K): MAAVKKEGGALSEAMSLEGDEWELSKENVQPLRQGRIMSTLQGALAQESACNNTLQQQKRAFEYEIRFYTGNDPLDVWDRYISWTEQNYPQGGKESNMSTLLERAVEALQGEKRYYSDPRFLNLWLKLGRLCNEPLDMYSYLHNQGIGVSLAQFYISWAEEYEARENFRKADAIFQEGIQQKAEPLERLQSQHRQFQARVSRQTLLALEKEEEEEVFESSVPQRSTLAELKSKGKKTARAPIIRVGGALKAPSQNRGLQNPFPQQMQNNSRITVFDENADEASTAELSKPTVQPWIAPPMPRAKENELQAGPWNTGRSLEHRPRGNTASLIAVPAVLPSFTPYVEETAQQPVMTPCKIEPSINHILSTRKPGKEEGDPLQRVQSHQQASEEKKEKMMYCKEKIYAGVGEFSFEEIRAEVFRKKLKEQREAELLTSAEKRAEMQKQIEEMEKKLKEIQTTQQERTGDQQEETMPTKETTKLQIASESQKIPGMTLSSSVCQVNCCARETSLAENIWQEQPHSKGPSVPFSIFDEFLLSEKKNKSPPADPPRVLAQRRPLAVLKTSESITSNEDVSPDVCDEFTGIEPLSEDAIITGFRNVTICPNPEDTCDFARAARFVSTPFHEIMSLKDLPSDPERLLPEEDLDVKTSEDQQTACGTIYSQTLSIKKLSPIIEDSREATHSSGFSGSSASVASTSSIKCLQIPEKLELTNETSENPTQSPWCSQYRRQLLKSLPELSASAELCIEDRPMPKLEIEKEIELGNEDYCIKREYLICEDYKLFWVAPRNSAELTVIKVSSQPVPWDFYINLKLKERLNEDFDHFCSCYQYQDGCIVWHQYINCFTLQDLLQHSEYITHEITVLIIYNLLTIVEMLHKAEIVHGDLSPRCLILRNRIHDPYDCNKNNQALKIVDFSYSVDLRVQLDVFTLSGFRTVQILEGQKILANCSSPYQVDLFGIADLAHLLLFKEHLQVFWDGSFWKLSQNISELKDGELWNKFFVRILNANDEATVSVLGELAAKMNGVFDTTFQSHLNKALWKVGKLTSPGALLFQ

B1: CENP-F (other, UniProt P49454 2542-3114, looked up)
chain: SQVEGEHQLWKEQNLELRNLTVELEQKIQVLQSKNASLQDTLEVLQSSYKNLENELELTKMDKMSFVEKVNKMTAKETELQREMHEMAQKTAELQEELSGEKNRLAGELQLLLEEIKSSKDQLKELTLENSELKKSLDCMHKDQVEKEGKVREEIAEYQLRLHEAEKKHQALLLDTNKQYEVEIQTYREKLTSKEECLSSQKLEIDLLKSSKEELNNSLKATTQILEELKKTKMDNLKYVNQLKKENERAQGKMKLLIKSCKQLEEEKEILQKELSQLQAAQEKQKTGTVMDTKVDELTTEIKELKETLEEKTKEADEYLDKYCSLLISHEKLEKAKEMLETQVAHLCSQQSKQDSRGSPLLGPVVPGPSPIPSVTEKRLSSGQNKASGKRQRSSGIWENGRGPTPATPESFSKKSKKAVMSGIHPAEDTEGTEFEPEGLPEVVKKGFADIPTGKTSPYILRRTTMATRTSPRLAAQKLALSPLSLGKENLAESSKPTAGGSRSQKVKVAQRSPVDSGTILREPTTKSVPVNNLPERSPTDSPREGLRVKRGRLVPSPKAGLESNGSENCKVQ
B1: no binding (human BUB1A kinase).

B2: human BUB1B kinase (enzyme)
chain: MDTPENVLQMLEAHMQSYKGNDPLGEWERYIQWVEENFPENKEYLITLLEHLMKEFLDKKKYHNDPRFISYCLKFAEYNSDLHQFFEFLYNHGIGTLSSPLYIAWAGHLEAQGELQHASAVLQRGIQNQAEPREFLQQQYRLFQTRLTETHLPAQARTSEPLHNVQVLNQMITSKSNPGNNMACISKNQGSELSGVISSACDKESNMERRVITISKSEYSVHSSLASKVDVEQVVMYCKEKLIRGESEFSFEELRAQKYNQRRKHEQWVNEDRHYMKRKEANAFEEQLLKQKMDELHKKLHQVVETSHEDLPASQERSEVNPARMGPSVGSQQELRAPCLPVTYQQTPVNMEKNPREAPPVVPPLANAISAALVSPATSQSIAPPVPLKAQTVTDSMFAVASKDAGCVNKSTHEFKPQSGAEIKEGCETHKVANTSSFHTTPNTSLGMVQATPSKVQPSPTVHTKEALGFIMNMFQAPTLPDISDDKDEWQSLDQNEDAFEAQFQKNVRSSGAWGVNKIISSLSSAFHVFEDGNKENYGLPQPKNKPTGARTFGERSVSRLPSKPKEEVPHAEEFLDDSTVWGIRCNKTLAPSPKSPGDFTSAAQLASTPFHKLPVESVHILEDKENVVAKQCTQATLDSCEENMVVPSRDGKFSPIQEKSPKQALSSHMYSASLLRLSQPAAGGVLTCEAELGVEACRLTDTDAAIAEDPPGSAAIAEDPPDAIAGLQAEWMQMSSLGTVDAPNFIVGNPWDDKLIFKLLSGLSKPVSSYPNTFEWQCKLPAIKPKTEFQLGSKLVYVHHLLGEGAFAQVYEATQGDLNDAKNKQKFVLKVQKPANPWEFYIGTQLMERLKPSMQHMFMKFYSAHLFQNGSVLVGELYSYGTLLNAINLYKNTPEKVMPQGLVISFAMRMLYMIEQVHDCEIIHGDIKPDNFILGNGFLEQDDEDDLSAGLALIDLGQSIDMKLFPKGTIFTAKCETSGFQCVEMLSNKPWNYQIDYFGVAATVYCMLFGTYMKVKNEGGECKPEGLFRRLPHLDMWNEFFHVMLNIPDCHHLPSLDLLRQKLKKVFQQHYTNKIRALRNRLIVLLLECKRSRK
notes: Endogenous protein in the immunoprecipitations; also called huBUB1B
B2: no binding (CENP-E).
